experiment: soluble on expression in E. coli; label from the status in PepcDB or PDB records

Soluble on expression in E. coli, not soluble:
MGSDKIHHHHHHMKKVLGGLLVATAVVSLAACSGGEKKASSDVSIKDRYELDEKTPAWKLDKKKEPTKIKWYINSDWTALPFGKDVTTAQIKKDLNVDIEFISGDDSKLNAMISSGDMPDIVTLTEKTGQAALKADSWAYSLNDLAKKYDPYLMKVVNQDTFKWYALEDGKTYGYPNYSNTKADYESGNIPVNDNFVIREDVYNALGKPDVSTPENFEKVMQQIKEKYPEMTPMGFTTVGDGAGPFLDKLQDFLGVPLEDKNGKYYDRNLDKEYLEWLKTFNDVYRAGNISDDSFTDDGATFDEKVKQGNYATMLVAGTSGQGGNFTEFMKKSGTRYIAIDGPSSTSGRKPTLNQTGISGWLSNYITKDAKDPAKVTQLFTYLIDEPGQILTKYGVEGVTYAYNDQGKIDYLPEVKKLEQTDNDAYNKKYGISRFLYFNNDRVNKLKVPMESALTQMQEWGKGKLVPHFVIENINPDAGTPEARANEAIETKLNTTVISMIRAKDDKAFDKSLEDYKAFLKSNKWDAIEKIKSEKMAENRDKLK, MGSDKIHHHHHHMKKWLVLGVAAVAFFSYENTPMEQAEADYPKSGGTLIDRYTSEYPGYDWEVRRTATEEFVALTKDGKDYGKYRSKNGVTTQGAVLNKDTETTLAKKGWKAVKSYRKGNTNYLLNLDHAAVYEKKDRYVTYFFDQHDGNKVKATLAIPKEVEAKKSGFYGKASSALRTTDEKLMLRLMNWDRADYNLGALTPYSPLKPVTRAHSENMAKNNFFSHTDPERRDPFDRMKENGIRFSAAGENLSMGYPNVFAAHWGLMNSKGHRDNIMNKTFEQADTGVAFRDNAPYFTINFRTP, MGSDKIHHHHHHMKKYYLLSLISASLIGATCIQCTSPKQKSGENTLPQKSELFVSLPDYCPTPDGMAIAPNGDLILACPNFADITQPACLMRITKDGAVSKWLDVPVLEETGWASPMGLAFNEEGDLFISDNQGWSGAEKAKNKGRVLRLKFENDQLKETITVASGMEHPNGIRIRNGKLYVTQSSLSQIKDPSGLLVSGVYCFDMNDRDIAVTNTSADQNLLTTVITKNPEVQYGLDGIVFNEAGDLFVGNFGDGAIHRIKMDAEGKVVSNDVWAQDTTQLRTTDGMCIDDKGNIWVADFSANAVARVDKDGKIQRIAQSPDCDGSDGGLDQPGEPIVWNGQVIVSCFDLVTGPDKVNTKHDKPFTLAKLSLE, MGSDKIHHHHHHMKLAVISSIYKNDSLSKIKQSLQSLLNQENVTCDIYLYCDGPVSIDIVHFLDSFDQNSLYIFKQEQNRGLAHALNELLNIVLTKEYEYIARMDADDISMPERFVKQIAFMNSHPDIDCLGTWAIEIDDDGKEYFRKKMPITHEECLELFKKRDCMIHPTVMFRRSYFEKAGLYPEDTYFGEDTMMWAKGFKSGCKFANVPEYLFKFRLDSNFFERRRGWKHAKSIYTLRHRVNRMLGFGWKEDCYALLYAMAKLMPKSILDIIYKTVR, MGSDKIHHHHHHMKLDINICNNIKSIRTRLGMSQQDLANIAGVTRQTISGVESGQYAPSVAITLRLAKALGCQVENLFWLEDDLPEIEAVLAKPVPTGQQLRVSLAKVGGQWIAYPLVGKEAFRMEMIPADGRAESQTHTNKVQVRLLDDLDKLQNTVVIAGCTPVISFLARATERWHPQLRVHYHFANSMAALRSLNRGEVHIAGMHLYDPQTGEHNIPFAREALDGRSAVLITLGIWEEGLVVAPGNPMEIKSLSDLVELEATIINREPGSGSRMLLERKLKEEKVSANTIKGYEHIVHSHQDVALSIAAGIADAGVSTASVAAAFGLGFIPLHQARYDLVILKEYLEEAPVQQFLSILGHRLVQSQLEVLGGYDISDIGEVVATI, MGSDKIHHHHHHMKLRLRKPMRSAGNMSSLVDFYNDFITRHGFEERKGIEETLRYLENGHNVILKAPTGYGKTTLTMILANAVSSNIDIGSRVIHVLPYRAIVQDLYLKLKKYADKGIIYTKSIGAQDMDYHDSPFFMKKVNVTTLDTFILNLFKLPTIDFKLIFKNYGSHYEFPRALIYSSIVIFDEFHLLGEDGKSLGAGLSAIEVLSDAGVPIVVTSATIDKGLERVLMDKLGKSGKVVYASDFKIDRKIYVNELEKDEISIADEKVKEGKRVLLVYNTRMGAIEAYWKLKERGLSPILIHSKFSKKDRIDKVNKINDAKLVVSTQVIEAGIDTSFDVLITEACPSHNLIQRAGRVARYGKGGKGKLEGEVYIFPFSGKVYNEGEVKETMKRVRKLKTIDESLLIERDYTKEIDSILARDLSVIDNSVFVDYKKVKSLYENICSITRETSIILGFPPNSDNVDDAIPLTEEEAIKIIKSKGSSAFVGNSNIKLYAGKCLQLEMIKNDILGVRIQDYNSEIGGVY, MGSDKIHHHHHHMKLSVKIAGVLTVAAAAMTAKMYATAKGNHLKTHTFPLSKMKGKPPLTIFFISDIHKRLIDQDLLEKARSHAPHLVIIGGDLAEGGVPSARIEENIKRLVHFGVPIVFVWGNNDYEVRQHKLYSIFKAHGVITLRNESVPFSYNGHTIAIAGVDDIRMEMDHYEEAIKELDESQLNILVCHNPEIHEQINEDDGIDVILSGHTHGGQIRFGKFGPYELGKTGIVKNAAYLISNGYGTTKVPLRLGAEPETHIVTLCGPE, MGSDKIHHHHHHMKNHTYKEIKNIYGKISPFEFKDKLIDIAKYTAKENNRELLDAGRGNPNWTCSTAREAFFTFGHFAITETRSNWDLGHLAGMPQKKGIKERFFKFINENIDMPGAYLARDIINFGINELGFDGDEFVHELADGIIGDNYPLPDRMLPHMEKIVHDYLVQEMKYDISGKYGDVEIFAVEGATAAMCYIFDSLMANELLKKGDTIALMTPIFTPYLEIPNLPRYDFKVVNINANEVDEKGAHTWQYTKKELEKLRDKSIKALFVVNPNNPASIAMDETSCNNLIDVIENYNKDLMIISDDVYGTFVEDFSSLMSKLPYNTVGVYSYSKYFGVTGWRLGTFALHKKNVFDKKINDLTGELKKSVDKRYSDMSLNPSSLSFMERVVADSRLVALNHTAGLSTPQQVQMAFFSAFALIDKVDAYKKLNMSICHRRQKLLFEALELPINENKNNAAYYTQFDIEEWAKLNYGEDLFKFISKTASPVDVLYKLANDYSVVLLSGNGFYGPEWSIRISLANLYDEAYTKIGKAIREILNGYIVEWQKIKK, MGSDKIHHHHHHMKNLEQRKSWYAEVAINYTSQQRKNWYNDVADAYNRTRPRYPQQLVSRVVELAQLPQNAAILEVGCGPGTATTAFAQLGFSMVCLEPSQNSSQLAQQNCSPYPNVEIINTSFEEWPLEPGKFDAVLAATSFHWVSPEIGYSKAADALKDHCSLILLWNMTPQPEYEVYQRLHEVYQAQAPTLERYEEQEAQEKHLRRFGKAVIDSGRFQDLVSEQLRCDVTYSIDDYLTLLSTLSPYIALDSQQRNSLFTSLRETLEKHCGSSVEISYLSAFHVAKKI, MGSDKIHHHHHHMKNNFLVNFILLHGYSLDNSSLMFGKMGYSLILFEYSHYFKDALAEKHAFELLQEVLASPMKSNTFNEGKMGIAWSLIHLIEKEYIEADYLELYGQEHKEIVAFIKQLKTDMNNIVSKNDAISFLIASKSYIQESDFDEILPNLIENLYDYLKQIPKSLFERNLFYYHATKMLCLYNLYEELSIRGETLIDIIVQTHKKLISDKHVCTNISFGVNLLQYGLCHKRKDIIKLANAIIKCYFSNMVLETLNLKESIDAIYNLNKLQLLNKESEWTSLKKQLSSLLFNKESYLYKENRLTLSRLKGGIPQLLLMECLNFQDIKSTGHYIMLK, MGSDKIHHHHHHMKPLAYRMRPQSIDQVVGQQHLVGPKKIIRRMVEARQLSSMILYGPPGIGKTSIASAIAGSSKYAFRQLNAATDGQKELSQVAAEGKMSGTVVLLLDEIHRLNKVKQDFLLPLLESGQVIMIGATTENPYLAISPAIRSRCQIFELKPLTEEEILTAVDRALTDEERGLGKYHAKLTKEAGEFLAQKGNGDLRATLNSLELAVLSTKQELEAEGKDASSLTVTLDDMADSLQMKIQNFDADGDGHYDLLSAFQKSIRGSDTDAGLHYLGRLLESGDLVSICRRLSVIAYEDIGLANPPACERVILAVQAAQQLGLPEARIPLANAVIELCLSPKSNSAMTAIDAALADIRQSNVGQIPDQLKDAHYKGASKLGHGTGYLYPHDYPGDWVAQAYLPDRMQGKQYFAPKGESKFEAAFKSQYQRLHDLQKAGLKGK
